Data from patent US20110318339A1 (FABRUS, published 2011).

Legend:
[1] = biological target: T1, rHuman ErbB2/Fc Chimera, CF (Cat# 1129-ER) (human, UniProt P04626 23-652); assay: Multispot ECL; Fab 8.1 nM
T1 construct: Bought from R&D Systems; also called human epidermal growth factor 2 receptor (ErbB2)
Protocol: (§1) An 150 μl aliquot of 1% Bovine Serum Albumin (BSA) in Tris-buffered Saline Tween (TBST) was added to each well and allowed to incubate for 30 min at 20° C. followed by washing and tap drying to completely remove any residual solution. Subsequently, a 12.5 μl aliquot of 1% BSA TBST was added to each well followed by the addition of a 12.5 μl aliquot of a purified Fab. The plate was sealed and incubated for 1 hour at 20° C. with shaking.
(§2) Detection antibodies were prepared by individually conjugating both goat anti-human Kappa light chain polyclonal antibody (K3502-1MG, Sigma-Aldrich) and goat anti-human Lambda light chain polyclonal antibody (L1645-1 mL, Sigma-Aldrich) with Ruthenium (II) tris-bipyridine-(4-methylsulfone)-N-hydroxysuccinimide (SULFO-TAG NHS-ester, Meso Scale Discovery) according to the manufacturer's instructions. TAG-detection antibody at 25 μl was added to each well and allowed to incubate for 1 hour at 20° C. with shaking. Finally, 15 μl of Read Buffer P with Surfactant (Cat # R92PC-1, Meso Scale Discovery) was added to each well. The electrochemiluminescence was measured using a Sector Imager 2400 (Meso Scale Discovery). Data was analyzed by comparing the ECL signals for an antigen to the blank of each well. A signal to blank ratio of 4 or more was considered a “Hit” Fab.
(§3) To confirm a “Hit” from the initial Multispot ECL screening, a Fab concentration dependent titration was carried out to determine the Fab-antigen binding affinity.

[2] = biological target: T2, rHuman EGF R/Fc Chimera, CF (Cat# 344-ER) (human, UniProt P00533 25-645); assay: Multispot ECL; Fab 8.1 nM
T2 construct: Bought from R&D Systems; also called epidermal growth factor receptor (EGF R)
Protocol: as §1, §2, §3

[3] = biological target: T3, rHuman HGF R/c-MET/Fc Chimera, CF (Cat# 358-MT/CF) (human, UniProt P08581 25-932); assay: Multispot ECL; Fab 8.1 nM
T3 construct: Bought from R&D Systems; also called HGF R/Fc; hepatocyte growth factor receptor (HGF R/c-Met)
Protocol: as §1, §2, §3

[4] = biological target: T4, rHuman Notch-1/Fc Chimera, CF (Cat# 3647-TK) (human, UniProt P46531 19-526); assay: Multispot ECL; Fab 8.1 nM
T4 construct: Bought from R&D Systems
Protocol: as §1, §2, §3

[5] = biological target: T5, rHuman CD44/Fc Chimera, CF (Cat# 3660-CD) (human, UniProt P16070 21-220); assay: Multispot ECL; Fab 8.1 nM
T5 construct: Bought from R&D Systems
Protocol: as §1, §2, §3

[6] = biological target: T6, rHuman IGF-1 sR, (IGF-1 sR), CF (Cat# 391-GR) (human, UniProt P08069 31-932); assay: Multispot ECL; Fab 8.1 nM
T6 construct: Bought from R&D Systems; also called insulin-like growth factor-1 soluble receptor
Protocol: as §1, §2, §3

[7] = biological target: T7, rHuman Erythropoietin R/Fc Chimera, CF (Cat# 963-ER) (human, UniProt P19235 25-250); assay: Multispot ECL; Fab 8.1 nM
T7 construct: Bought from R&D Systems; also called EPO R/Fc; Epo R/Fc chimera
T7 sequence (looked up): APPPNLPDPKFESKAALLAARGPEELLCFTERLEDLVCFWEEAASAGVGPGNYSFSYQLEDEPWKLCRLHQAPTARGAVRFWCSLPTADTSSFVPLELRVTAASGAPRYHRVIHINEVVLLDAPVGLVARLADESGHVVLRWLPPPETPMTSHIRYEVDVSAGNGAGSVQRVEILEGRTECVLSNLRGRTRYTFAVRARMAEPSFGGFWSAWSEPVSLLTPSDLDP
Protocol: as §1, §2, §3

[8] = biological target: T8, Recombinant Human DLL4 (Cat# 1506-D4/CF) (human, UniProt Q9NR61 27-529); assay: Multispot ECL; Fab 8.1 nM
T8 construct: Bought from R&D Systems; also called rHuman DLL4; hDLL4
Protocol: as §1, §2, §3

[9] = biological target: T2, rHuman EGF R/Fc Chimera, CF (Cat# …); assay: Multispot ECL; Fab 32.5 nM
Protocol: as §1, §2, §3

[10] = biological target: T3, rHuman HGF R/c-MET/Fc Chimera, CF (Cat# …); assay: Multispot ECL; Fab 32.5 nM
Protocol: as §1, §2, §3

[11] = biological target: T4, rHuman Notch-1/Fc Chimera, CF (Cat# …); assay: Multispot ECL; Fab 32.5 nM
Protocol: as §1, §2, §3

[12] = biological target: T5, rHuman CD44/Fc Chimera, CF (Cat# …); assay: Multispot ECL; Fab 32.5 nM
Protocol: as §1, §2, §3

[13] = biological target: T6, rHuman IGF-1 sR, (IGF-1 sR), CF (Cat# …); assay: Multispot ECL; Fab 32.5 nM
Protocol: as §1, §2, §3

ECL signal [1]: 557
ECL signal [2]: 560
ECL signal [3]: 551
ECL signal [4]: 612
ECL signal [5]: 528
ECL signal [6]: 518
ECL signal [7]: 660
ECL signal [8]: 1550
ECL signal [9]: 645
ECL signal [10]: 525
ECL signal [11]: 706
ECL signal [12]: 573
ECL signal [13]: 561
B1: Fab VH1-8_IGHD2-2*01_IGHJ6*01 & L12_IGKJ1*01 (Fab, V domains shown)
VH: QVQLVQSGAEVKKPGASVKVSCKASGYTFTSYDINWVRQATGQGLEWMGWMNPNSGNTGYAQKFQGRVTMTRNTSISTAYMELSSLRSEDTAVYYCARGGYCSSTSCYADYYYYYGMDVWGQGTTVTVSS
VL: not shown
